Variants at the floor of the assay were thinned out.
How the values were obtained:
[1] = system: biotinyl-Phe-oxazolone; assay: self-aminoacylation, catalytic enhancement (BFO) (fold over background); higher = more active; k-Seq, kA / k0A0; sequences stand for … in GGGAAUGGAUCCACAUCUACGAAUUC…UUCACUGCAGACUUGACGAAGCUG
Summary of the method: (§1)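 Mutagenized RNA pools with a 21-nt variable region (0.43 μM) were reacted with each biotinyl-aminoacyl-oxazolone at 2–1250 μM for 90 minutes at room temperature, in 50 μL HEPES/NaCl/KCl/MgCl2/CaCl2 buffer containing 5% acetonitrile at pH 6.9–7.0. RNA captured on streptavidin was quantified by triplicate qPCR and by Illumina sequencing. The fraction reacted for each sequence was fit to a pseudo-first-order model with bootstrapping, and catalytic enhancement is the median kA divided by the uncatalyzed rate, taken as the low-activity peak of a bimodal Gaussian fit.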

[2] = system: biotinyl-Trp-oxazolone; assay: self-aminoacylation, catalytic enhancement (BWO) (fold over background); higher = more active; k-Seq, kA / k0A0; sequences stand for … in GGGAAUGGAUCCACAUCUACGAAUUC…UUCACUGCAGACUUGACGAAGCUG
Summary of the method: as §1

[3] = system: biotinyl-Met-oxazolone; assay: self-aminoacylation, catalytic enhancement (BMO) (fold over background); higher = more active; k-Seq, kA / k0A0; sequences stand for … in GGGAAUGGAUCCACAUCUACGAAUUC…UUCACUGCAGACUUGACGAAGCUG
Summary of the method: as §1

[4] = system: biotinyl-Leu-oxazolone; assay: self-aminoacylation, catalytic enhancement (BLO) (fold over background); higher = more active; k-Seq, kA / k0A0; sequences stand for … in GGGAAUGGAUCCACAUCUACGAAUUC…UUCACUGCAGACUUGACGAAGCUG
Summary of the method: as §1

[5] = system: biotinyl-Val-oxazolone; assay: self-aminoacylation, catalytic enhancement (BVO) (fold over background); higher = more active; k-Seq, kA / k0A0; sequences stand for … in GGGAAUGGAUCCACAUCUACGAAUUC…UUCACUGCAGACUUGACGAAGCUG
Summary of the method: as §1

| Sequence | self-aminoacylation [1] | self-aminoacylation [2] | self-aminoacylation [3] | self-aminoacylation [4] | self-aminoacylation [5] |
| --- | --- | --- | --- | --- | --- |
| AAGUCUGCUAACAGUCGCAAG [Fam3.1 aminoacylation ribozyme variant] | 28.4 | 7.03 | 2.09 | – | – |
| AAGUCUGCUAAUAGUCGCAAG [Fam3.1 aminoacylation ribozyme variant] | 51.8 | 9.75 | 2.44 | – | – |
| AAGUUUGCCAAUAGUCGCAAA [Fam3.1 aminoacylation ribozyme variant] | 2.47 | – | 2.37 | – | – |
| AAGUUUGCCAAUAGUCGCAAU [Fam3.1 aminoacylation ribozyme variant] | 9.89 | 3.5 | 2.07 | – | – |
| AAGUUUGCUAAUAGUCGAAAA [Fam3.1 aminoacylation ribozyme variant] | – | – | 2.08 | – | – |
| ACUACCCUGGUCAUCGAGAGA [Fam2.1 aminoacylation ribozyme variant] | – | – | 2.02 | – | – |
| AGUACCCUGGUCAUCGAGUAA [Fam2.1 aminoacylation ribozyme variant] | 3.84 | – | 2.71 | 2.52 | – |
| AUCACCCUGGUCAUCGAGUGC [Fam2.1 aminoacylation ribozyme variant] | 4.47 | 2.4 | 3.26 | 2.56 | – |
| AUCACCCUGGUCAUCGAGUUA [Fam2.1 aminoacylation ribozyme variant] | 4.31 | 2.62 | 2.93 | 2.83 | – |
| AUUAACCUAGUUCAUCGGGUG [Fam2.2 aminoacylation ribozyme variant] | 12.3 | 2.54 | 2.14 | 2.71 | – |
| AUUACACUGGUCAUCCAGUGA [Fam2.1 aminoacylation ribozyme variant] | 9.37 | 3.06 | 3.47 | 3.01 | – |
| AUUACACUGGUCAUGGAGUGA [Fam2.1 aminoacylation ribozyme variant] | 2.95 | 2.06 | 2.63 | 2.48 | 2 |
| AUUACCCUGCUCAUCGUGUGA [Fam2.1 aminoacylation ribozyme variant] | 14.7 | 3.19 | 2.7 | 2.85 | – |
| AUUACCCUGGCCAACGAGUGA [Fam2.1 aminoacylation ribozyme variant] | 21 | 5.43 | 2.75 | 3.31 | – |
| AUUACCCUGGUCAGCGAGUGG [Fam2.1 aminoacylation ribozyme variant] | 2.26 | 2.61 | 2.51 | 2.51 | – |
| AUUACCCUGGUCAUCGCGUCA [Fam2.1 aminoacylation ribozyme variant] | 12.2 | 2.27 | 2.38 | 2.14 | 2.03 |
| AUUACCCUGGUCAUCUCGUGA [Fam2.1 aminoacylation ribozyme variant] | 12.4 | 2.81 | 2.37 | 2.62 | – |
| AUUACCCUGGUUAUCAAGUGA [Fam2.1 aminoacylation ribozyme variant] | 4.14 | 3.4 | 2.67 | 2.53 | – |
| AUUACCGUGGUCAUCAAGUGA [Fam2.1 aminoacylation ribozyme variant] | 4.54 | 3.6 | 2.83 | 3.05 | – |

| Sequence | self-aminoacylation [1] | self-aminoacylation [2] | self-aminoacylation [3] | self-aminoacylation [4] | self-aminoacylation [5] |
| --- | --- | --- | --- | --- | --- |
| AUUACGCUCGUCAUCGAGUGA [Fam2.1 aminoacylation ribozyme variant] | 3.68 | 2.54 | 2.09 | 2.5 | – |
| AUUACUCUGGUCAUCGAGUGG [Fam2.1 aminoacylation ribozyme variant] | – | – | 2.16 | 2.42 | – |
| AUUAGCCUGCUCAUCGAGUGA [Fam2.1 aminoacylation ribozyme variant] | 12.2 | 4.65 | 3.42 | 2.92 | – |
| AUUCACCUAGAUCAUAGGGUG [Fam2.2 aminoacylation ribozyme variant] | 13.6 | 2.9 | 3.97 | 4.64 | 2.07 |
| AUUCACCUAGCUUAUCGGGUG [Fam2.2 aminoacylation ribozyme variant] | 4.71 | 2.2 | 2.12 | – | – |
| AUUCACCUAGGACAACGGGUG [Fam2.2 aminoacylation ribozyme variant] | 25.7 | 2.92 | 3.6 | 3.72 | – |
| AUUCACCUAGGUCAACUGGUG [Fam2.2 aminoacylation ribozyme variant] | 15.9 | 2.21 | 2.69 | 3.35 | – |
| AUUCACCUAGGUCACCGGGUC [Fam2.2 aminoacylation ribozyme variant] | – | – | – | – | 2.18 |
| AUUCACCUAGGUCAGCGGCUG [Fam2.2 aminoacylation ribozyme variant] | 8.56 | – | 2.5 | 3.16 | – |
| AUUCACCUAGGUUAUCGGGGG [Fam2.2 aminoacylation ribozyme variant] | 6.72 | 2.02 | – | 2.29 | 2.01 |
| AUUCACCUAGUUCAUCGGGUG [Fam2.2 aminoacylation ribozyme variant] | 12.9 | 2.49 | 2.49 | 2.74 | 2.15 |
| AUUCACCUAUGUCAUUGGGUG [Fam2.2 aminoacylation ribozyme variant] | 9.21 | 2.13 | 2.03 | 2.34 | – |
| AUUCACCUAUUUCAUCGGGUG [Fam2.2 aminoacylation ribozyme variant] | 8.43 | 3.17 | 2.93 | 3.49 | 2.02 |
| AUUCACCUUGGUCAUCUGGUG [Fam2.2 aminoacylation ribozyme variant] | 17.9 | 2.75 | 2.82 | 3.3 | 2.16 |
| AUUCACUUAGAUCAUCGGGUG [Fam2.2 aminoacylation ribozyme variant] | 10.8 | 2.82 | 2.14 | 2.57 | – |
| AUUCACUUAGGUAAUCGGGUG [Fam2.2 aminoacylation ribozyme variant] | 19.6 | 2.72 | 3.11 | 3.33 | – |
| AUUCAUCUAGCUCAUCGGGUG [Fam2.2 aminoacylation ribozyme variant] | – | 2.3 | 2.12 | – | – |
| AUUCAUCUAGGUCAUCAGGUG [Fam2.2 aminoacylation ribozyme variant] | 2.89 | 2.07 | 2.23 | – | – |
| AUUCCCCUGGUCAUCAAGUGA [Fam2.1 aminoacylation ribozyme variant] | 3.87 | 2.34 | 2.36 | – | – |

| Sequence | self-aminoacylation [1] | self-aminoacylation [2] | self-aminoacylation [3] | self-aminoacylation [4] | self-aminoacylation [5] |
| --- | --- | --- | --- | --- | --- |
| AUUGCCCUGGUCAUCGAGUGC [Fam2.1 aminoacylation ribozyme variant] | 11.6 | 4.08 | 4.79 | 4.73 | 2.32 |
| CCACACCUCAAGCAAUCGGCC [Fam1B.1 aminoacylation ribozyme variant] | – | 2.61 | – | – | 2.42 |
| CCACACUUCAAGCAAACGGGC [Fam1B.1 aminoacylation ribozyme variant] | – | – | – | – | 2.03 |
| CCACACUUCAAGCAACCGCUC [Fam1B.1 aminoacylation ribozyme variant] | 8.07 | – | – | – | 2.09 |
| CCACACUUCAAGCAACCGGUU [Fam1B.1 aminoacylation ribozyme variant] | – | – | – | – | 2.04 |
| CCACACUUCAAGCAAUCGGCG [Fam1B.1 aminoacylation ribozyme variant] | – | 2.05 | 2.16 | – | 2.18 |
| CCACACUUCACGCAAUCGCUC [Fam1B.1 aminoacylation ribozyme variant] | – | – | – | – | 2.19 |
| CCACCCUUCAAGCAAUCGGCC [Fam1B.1 aminoacylation ribozyme variant] | 3.03 | 3.11 | – | – | 2.39 |
| CCACCCUUCAAGCAUUCGGUC [Fam1B.1 aminoacylation ribozyme variant] | – | – | – | – | 2.56 |
| CCCCACUUCAAACAAUCGGUC [Fam1B.1 aminoacylation ribozyme variant] | 140 | 61.2 | – | 2.83 | 2.15 |
| CCCCACUUGAAGCAAUCGGUC [Fam1B.1 aminoacylation ribozyme variant] | – | 2.12 | – | – | 2.23 |
| CCGCCCUUCAAGCAAUCGGUC [Fam1B.1 aminoacylation ribozyme variant] | 38.9 | 29.9 | – | 2.13 | 2.62 |
| CGACUUCAAGCAAUCGGUCUG [Fam1A.1 aminoacylation ribozyme variant] | 26.6 | 20.1 | – | 2.13 | – |
| CUACUUCAACCAAUCGGCCUG [Fam1A.1 aminoacylation ribozyme variant] | 47.8 | 42.2 | – | 2.86 | – |
| CUUACCGUGGUCAUCGAGUGA [Fam2.1 aminoacylation ribozyme variant] | 10.3 | 3.87 | 3.29 | 2.59 | 2.68 |
| CUUACCUUGGUCAUCGAGUGA [Fam2.1 aminoacylation ribozyme variant] | 3.62 | 3.9 | 3.25 | 2.99 | 2.66 |
| CUUCACCUAGGUCAACGGGUG [Fam2.2 aminoacylation ribozyme variant] | 9.32 | – | 2.28 | 2.48 | – |
| GCACACUUCAAACAAUCGGUC [Fam1B.1 aminoacylation ribozyme variant] | 92.2 | 59 | 2.13 | 2.99 | 2.19 |
| UAGUUUGCUAAUAGUCGCGAG [Fam3.1 aminoacylation ribozyme variant] | 2.58 | 2.02 | – | 2.08 | – |

Source: the supplement of paper PMC9233669
